Experiment [1] concerns the target recombinant alpha tubulin of Plasmodium falciparum (Plasmodium falciparum). In words: MST.
The target is the same in experiment [2]. In words: MST. This is another data set of the same source.

Where two headings read alike, the source gives them in different places.

B1: recombinant Plasmodium falciparum cold shock protein PfCoSP (PF3D7_0109600) (natural protein)
chain: MLRRKIHIHFNSYKKHFFSQLINKEKHDKITGNVIMFDKRKGYGFIKPNDGGPDIFVHYTDICQSRTFEVTNEEKKKLAWNANMDITQKKEEYNFEYDNNNNNNNNKHNKKKEEIKKEFKYLVPGERVKFSVIYDEKSNSSKAINVDYID
Turning to B1, the Kd – broadly, a measure of binding affinity in units of concentration – in experiment [1] amounted to 274 nM; in experiment [2], 210 nM.

Values taken from article doi:10.1101/2022.07.07.499247.
